This is an account of results in publication PMC4457907.

Series [1] concerns the target T1, AtrA (Streptomyces coelicolor) (UniProt Q9KYF2).
T1 sequence: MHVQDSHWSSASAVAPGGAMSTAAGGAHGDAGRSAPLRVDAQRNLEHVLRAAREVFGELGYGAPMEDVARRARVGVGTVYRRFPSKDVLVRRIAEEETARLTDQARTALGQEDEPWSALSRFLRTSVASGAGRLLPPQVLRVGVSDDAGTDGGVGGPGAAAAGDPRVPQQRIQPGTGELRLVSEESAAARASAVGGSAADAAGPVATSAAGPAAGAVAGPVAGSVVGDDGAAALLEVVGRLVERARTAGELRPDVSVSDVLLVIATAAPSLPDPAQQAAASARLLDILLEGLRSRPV
Description: EMSA. The settings on record: SlbR EMSA: 0.5x TBE pH 8.0, 0.0375% glycerol, 5 mM MgCl2, 1 mM DTT, 7.5 ug salmon sperm DNA in 20 ul, 30 min room temperature; AtrA EMSA: as Uguru et al. 2005 ….

Series [2] concerns AtrA (Streptomyces coelicolor). The series can be described thus: EMSA. The settings on record: SlbR EMSA: 0.5x TBE pH 8.0, 0.0375% glycerol, 5 mM MgCl2, 1 mM DTT, 7.5 ug salmon sperm DNA in 20 ul, 30 min room temperature, AtrA EMSA: as Uguru et al. 2005 ….

Regarding “AGCCGCGGGAACCAACGTCGCACGGCATGATCACGCAGGTCAGCGTGGGTGAGTGGGGGTTCGGAGGGGGGCACATCCGGGGCGGGCGCCATCCGTGCTCCGATCGGGGGGCGCTCCGTGCGGAACGTGCCCCTTCTGAATTGACCCCCGCTCAACTATGTTCTTTCCCACGGTGTGTAG (double strand) [SCO4119 promoter probe (179 bp)]”, the binding signal entry in series [1] is on record as “binds more weakly”.

For “GTGAGAGCCGTGGGACACCGGTGGCGGTAACAGGAACCACCGGTTCCCTCGGGCGAGGGAAGTTTCCCGGACGGACCGTCGGTGAGCGGTGACCGACGGTTAGAGTCCGGAACTCCACGCGGGGGCGACTCCGCGAATGGCGCACCCCCCACCCGTGTTCGCCGCACGGGCCGCCACCTCGCGTTCCGGGAGTGATCCTTGGCCACGGCTGACACCGCATTCGCT (double strand) [ssgR promoter probe (224 bp)]”, the Kd in series [1] turned out to be 1200 nM.

As for actII-ORF4 site 2 probe (100 bp), the Kd in series [2] (cited from earlier work) is 150 nM.

Turning to ssgR promoter probe (224 bp), the Kd in series [2] (apparent Kd', 5 nM probe) amounted to 1200 nM.
